Measured values published in patent US20260092100A1 (ICOSAVAX, published 2026).

T1: hMPV033 antigen (ectodomain 1-472 of the UT-A CL-28 hMPV F mutant fused to I53-50A) (human metapneumovirus, A strain)
T1 construct: A 6-Gly linker replaces the F1/F2 cleavage site; The stabilising mutations T127C, N153C, A185P, V231I, L219K, G294E, T365C and V463C are already in the entry; A GS linker and I53-50A follow; also called hMPV033 F protein; I53-50A-hMPV033
T1 chain: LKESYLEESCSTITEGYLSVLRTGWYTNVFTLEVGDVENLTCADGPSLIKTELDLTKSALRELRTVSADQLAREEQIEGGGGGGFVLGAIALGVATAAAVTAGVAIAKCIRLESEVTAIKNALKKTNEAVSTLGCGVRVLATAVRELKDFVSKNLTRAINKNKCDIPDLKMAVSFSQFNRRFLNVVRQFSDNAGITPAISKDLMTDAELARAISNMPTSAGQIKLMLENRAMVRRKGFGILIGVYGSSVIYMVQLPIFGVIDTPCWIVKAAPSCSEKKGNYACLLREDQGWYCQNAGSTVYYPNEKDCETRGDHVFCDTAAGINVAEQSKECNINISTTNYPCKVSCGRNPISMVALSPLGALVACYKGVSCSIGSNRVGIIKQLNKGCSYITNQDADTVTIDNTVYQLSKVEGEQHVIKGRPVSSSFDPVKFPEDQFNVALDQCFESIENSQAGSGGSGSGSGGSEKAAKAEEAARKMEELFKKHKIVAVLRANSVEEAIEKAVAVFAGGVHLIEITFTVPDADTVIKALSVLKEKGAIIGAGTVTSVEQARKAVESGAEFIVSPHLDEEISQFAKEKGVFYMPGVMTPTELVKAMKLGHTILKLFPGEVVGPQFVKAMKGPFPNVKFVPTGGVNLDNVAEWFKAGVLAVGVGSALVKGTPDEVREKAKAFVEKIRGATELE


Tests used:
DS-Cav1 (RSV control) [1] = biological target: T2, DS-Cav1 (RSV control) (UniProt P03420 26-513); assay: Octet biolayer interferometry, bottom panel titled 'anti-DS-Cav1-CompA specificity'; format and concentrations not given
T2 construct: also called RSV F protein; RSV F

[2] = biological target: T3, hMPV F protein on hMPV/A virus (human metapneumovirus, subtype A, UniProt Q6WB98 19-539); assay: cell-based or functional assay
Target sequence in this assay (Q6WB98 19-539): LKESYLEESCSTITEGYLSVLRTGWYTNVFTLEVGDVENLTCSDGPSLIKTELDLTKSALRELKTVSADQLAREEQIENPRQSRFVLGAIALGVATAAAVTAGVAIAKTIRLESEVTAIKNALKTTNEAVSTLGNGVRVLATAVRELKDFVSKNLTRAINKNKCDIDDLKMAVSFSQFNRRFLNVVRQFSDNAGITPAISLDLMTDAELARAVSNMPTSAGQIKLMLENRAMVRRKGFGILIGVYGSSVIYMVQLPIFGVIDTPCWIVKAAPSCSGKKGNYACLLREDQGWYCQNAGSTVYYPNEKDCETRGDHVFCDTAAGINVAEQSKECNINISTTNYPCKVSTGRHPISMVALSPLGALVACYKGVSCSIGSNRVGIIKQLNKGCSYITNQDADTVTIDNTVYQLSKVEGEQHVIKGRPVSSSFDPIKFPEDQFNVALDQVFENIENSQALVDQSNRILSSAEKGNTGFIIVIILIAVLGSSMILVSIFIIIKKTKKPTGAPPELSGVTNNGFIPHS

[3] = biological target: T3, hMPV F protein on hMPV/A virus; assay: cell-based or functional assay; remark: listed apart in the source
[4] = biological target: T1, hMPV033 antigen (ectodomain 1-472 of …); assay: Octet biolayer interferometry: mouse antibody captured on Protein G biosensors, CompA-hMPV033 (panel title 'Pre Fusion hMPV-F') at 10 µg/mL in solution, 120 s association and 120 s dissociation
[5] = biological target: T1, hMPV033 antigen (ectodomain 1-472 of …); assay: summary of characterisation
DS-Cav1 (RSV control) [6] = biological target: T2, DS-Cav1 (RSV control); assay: Octet biolayer interferometry, bottom panel titled 'anti-DS-Cav1-dn5B specificity'; format and concentrations not given
[7] = biological target: T1, hMPV033 antigen (ectodomain 1-472 of …); assay: BLI (Octet)
DS-Cav1 (RSV control) [8] = biological target: T2, DS-Cav1 (RSV control); assay: Octet biolayer interferometry, bottom panel titled 'anti-DS-Cav1-CompA specificity'; format and concentrations not given; remark: listed apart in the source

Binder | binding result (DS-Cav1 (RSV control) [1]) | IC50, final serum dilution [2] [µg/mL] | IC50, original serum dilution [2] [µg/mL] | hMPV/A RL Bx Titer (Log 2), microneutralization assay [2] [log2] | hMPV/A neutralization assay titer, supernatant [3] [log2] | binding result [4] | binding result [5] | binding result (DS-Cav1 (RSV control) [6]) | binding result [7] | binding result (DS-Cav1 (RSV control) [8])
42C2 (mouse) (antibody, V domains shown, Mouse IgG1 / kappa; also called 42C2 mIgG; 42C2 mAB) VH: QVTLKESGPGILQPSQTLSLTCSFSGFSLSTFGMGVVWTRQPSGKGLEWLAHIWWDDDNYYNPALKSRLTISKDTSKNQVFLKIANADTADTATYYCARIVKVLEQYFDVWGTGTTVTVSS VL: DIMMTQSHKFMSTSVGDRVIFTCKASQDVGTAVAWYQQKSGQSPKLLIYWASTRHTGVPDRFTGSGSGTDFTLTISNVQSEDLADYFCQQYTSYPLTFGAGTKLELK | no binding | 0.0977 | 0.391 | 9 | > 5 | binds |  |  |  | 
42C2 hIgG1 (antibody, V domains shown, Recombinant form with human IgG1 Fc) VH: QVTLKESGPGILQPSQTLSLTCSFSGFSLSTFGMGVVWTRQPSGKGLEWLAHIWWDDDNYYNPALKSRLTISKDTSKNQVFLKIANADTADTATYYCARIVKVLEQYFDVWGTGTTVTVSS VL: DIMMTQSHKFMSTSVGDRVIFTCKASQDVGTAVAWYQQKSGQSPKLLIYWASTRHTGVPDRFTGSGSGTDFTLTISNVQSEDLADYFCQQYTSYPLTFGAGTKLELKR | no binding | 0.0691 | 0.276 | 9.5 |  |  | binds |  |  | 
17D10 hIgG1 (antibody, V domains shown, Recombinant form with human IgG1 Fc; also called Human 17D10 mAB; 171D10 hIgG1) VH: QVQLQQPGAELVKPGASVKMSCKASGYTFTSYWITWVKQRPGQGLEWIGDIYPGSGSITYNEKFKTKATLTVDTSSSTAYMQLNSLTSEDSAVYYCAGLLRLTFDVWGTGTTVTVSS VL: DIQLTQTTSSLSASLGDRVTISCRASQDISNYLNWYQQKPDGTVKLLISYTSGLHSGVPSRFSGSGSGTDYSLTISNLEQEDIATYFCQQGNTLPWTFGGGTKLEIKR |  | 0.0345 | 0.138 | 10.5 |  |  |  | no binding | binds | 
17E10 (antibody, mouse IgG1, V domains shown) VH: QVQLQQPGAELVKPGASVKMSCKASGYTFTSYWITWVKQRPGQGLEWIGDIYPGSGSITYNEKFKTKATLTVDTSSSTAYMQLNSLTSEDSAVYYCAGLLRLTFDVWGTGTTVTVSS VL: DIQLTQTTSSLSASLGDRVTISCRASQDISNYLNWYQQKPDGTVKLLISYTSGLHSGVPSRFSGSGSGTDYSLTISNLEQEDIATYFCQQGNTLPWTFGGGTKLEIK |  |  |  |  | > 5 |  |  |  |  | 
17D10 (mouse) (antibody, V domains shown, Mouse IgG1 / kappa; also called Mouse 17D10 mAB; 17D10 mIgG) VH: QVQLQQPGAELVKPGASVKMSCKASGYTFTSYWITWVKQRPGQGLEWIGDIYPGSGSITYNEKFKTKATLTVDTSSSTAYMQLNSLTSEDSAVYYCAGLLRLTFDVWGTGTTVTVSS VL: DIQLTQTTSSLSASLGDRVTISCRASQDISNYLNWYQQKPDGTVKLLISYTSGLHSGVPSRFSGSGSGTDYSLTISNLEQEDIATYFCQQGNTLPWTFGGGTKLEIK |  | 0.0488 | 0.195 | 10 | > 5 | binds |  | no binding |  | 
13E10 (mouse) (antibody, V domains shown, Mouse IgG1 / kappa; also called 13E10 mIgG) VH: EVKLVESGGGLVQPGGSLSLSCAASGFTFTDYYMNWVRQPPGKALEWLGFIRNKDNGYTTEYSASVKGRFTISRDNSQSILYLQMNALRAEDSATYYCTRYYFGYDGDYFDYWGQGTTLTVSS VL: EIVLTQSPTTMAASPGEKITITCSASSSISSNYLHWYQQKAGFSPKLLIYRTSNLASGVPARFSGSGSGTSYSLTIGTMEAEDVATYYCQQGSSLPRTFGGGTKLEIK |  | 0.195 | 0.781 | 8 | > 5 | binds |  |  |  | no binding
13E10 hIgG1 (antibody, V domains shown, Recombinant form with human IgG1 Fc) VH: EVKLVESGGGLVQPGGSLSLSCAASGFTFTDYYMNWVRQPPGKALEWLGFIRNKDNGYTTEYSASVKGRFTISRDNSQSILYLQMNALRAEDSATYYCTRYYFGYDGDYFDYWGQGTTLTVSS VL: EIVLTQSPTTMAASPGEKITITCSASSSISSNYLHWYQQKAGFSPKLLIYRTSNLASGVPARFSGSGSGTSYSLTIGTMEAEDVATYYCQQGSSLPRTFGGGTKLEIKR |  | 0.0977 | 0.391 | 9 |  |  | binds |  |  | no binding
